Experimental data reported in paper PMC5814282, “Biophysical studies and NMR structure of YAP2 WW domain - LATS1 PPxY motif complexes reveal the basis of their interaction” (Oncotarget, 2018).

Experiments:
[1] = target: WW12 (YAP2, both WW domains); test: ITC, WW12 versus PY12; type: binding, human; settings: 25°C, 2 mM DTT, 2 mM EDTA
Procedure: ITC experiments were performed using the MicroCal VP-ITC titration calorimeter (MicroCal-Malvern). […] The proteins and peptides used were prepared in the same buffer containing 20 mM Tris-HCl pH 7.0 and 100 mM NaCl. Protein concentrations varying from 20 to 70 μM were titrated against peptide concentrations ranging from 0.5 to 1.8 mM at 25°C. The peptide samples were also injected into buffer as a reference to estimate the heat of dilution. In the case of WW12 vs PY12, the buffer used was 20 mM Tris-HCl pH 7.0, 100 mM NaCl, 3% glycerol, 2 mM DTT and 2 mM EDTA. All samples were degassed and spun before the experiment. The binding isotherms were analyzed employing a model that considered a single ligand binding site implemented in Origin 7 (OriginLab).

WW12 = test: Co-expression, affinity and gel filtration chromatography of WW12-PY12; type: binding, human; settings: WW12 and PY12 co-expressed in E. coli
Procedure: Cells were harvested by spinning at 4,000 g for 20 min and lysed by sonication in buffer containing 50 mM Tris-HCl pH 7.0, 200 mM NaCl, 5% glycerol, 2 mM DTT, 0.5% Triton X-100 and 1mM PMSF. […] The GST tag was cleaved overnight using PreScission Protease. In the case of WW12-PY12 complex, an additional Ni-NTA chromatography step was performed, as PY12 contained a His-tag. The eluted proteins were further purified using FPLC Superdex 75 gel filtration in buffer containing 20 mM Tris-HCl pH 7.0, 100 mM NaCl, 5% glycerol and 2 mM DTT. The purity and quality of the purified proteins were assessed using SDS polyacrylamide gel electrophoresis (SDS-PAGE) and dynamic light scattering (DLS).

B1: PY12: LATS1 region PY12 (containing both PPxY motifs; aa 361-567) (protein)
chain: NVVPAGTVNRQPPPPYPLTAANGQSPSALQTGGSAAPSSYTNGSIPQSMMVPNRNSHNMELYNISVPGLQTNWPQSSSAPAQSSPSSGHEIPTWQPNIPVRSNSFNNPLGNRASHSANSQPSATTVTAITPAPIQQPVKSMRVLKPELQTALAPTHPSWIPQPIQTVQPSPFPEGTASNVTVMPPVAEAPNYQGPPPPYPKHLLHQN
modifications: left off: His-tag, end not stated, kept
Kd ([1]; ITC VP-ITC, 20 mM Tris-HCl pH 7.0, 100 mM NaCl, 3% glycerol, single ligand binding site model): 9.6 µM | -TΔS ([1]; ITC, pH 7.0, 3% glycerol): 33.4 kcal/mol | ΔG ([1]; ITC, pH 7.0, 3% glycerol): -6.8 kcal/mol | ΔH ([1]; ITC, pH 7.0, 3% glycerol): -40.2 kcal/mol | complex formation (WW12): formed a tight complex
